One experiment concerns the target T1, hCD137-mFc-Avi (human; mouse, UniProt Q07011 24-186, biotin on the Avi sequence where the biotinylated form was used).
T1 construct: also called human CD137-mFc-Avi; dimeric human CD137; not shown: mouse IgG2a Fc domain (mIgG2a Fc)
In words: SPR, mAb^2 captured by anti-human Fab, antigen in flow, 1:1 Langmuir fit. As to the method:
(§1) An anti-human Fab capture antibody was immobilised on all four flow cells of a CM5 series S chip (GE Healthcare #BR-1005-30) to an average surface density of 6000 RU following the manufacturer's recommendations (GE Healthcare, human Fab capture Kit, #28958325). […] Each mAb² was captured to approximately 150 RU by injecting a 3 μg/ml solution of mAb² diluted in HBS-EP+ buffer (GE Healthcare #BR1006-69) for 60 seconds at 30 μl/min. Then different concentrations of human, cyno or mouse CD137 antigen (unbiotinylated human, cyno or mouse CD137-mFc-Avi or human CD137-Avi-His) in HBS-EP+ buffer were flowed over the chip for 3 min at 60 μl/min and then allowed to dissociate for 10 minutes. After each antigen concentration the chip was regenerated by infecting 10 mM glycine pH 2.1 at a flow rate of 30 μl/min for 30 seconds. Buffer HBS-EP+ was injected before the highest concentration of antigen and after the lowest concentration of antigen for reference subtraction, and one of the concentrations at random was repeated twice. The binding kinetics were fit with a 1:1 Langmuir model to generate equilibrium binding constants (KD) for each sample. Data analysis was performed with BiaEvaluation software version 3.2.
A general note: In SPR one partner is held on a chip, and binding of the other changes the refractive index at the surface.

The next experiment deals with T2, cCD137-mFc-Avi (cynomolgus; mouse).
T2 construct: also called cynomolgus CD137-mFc-Avi; Cyno CD137-mFc-Avi; not shown: mouse IgG2a Fc domain (mIgG2a Fc)
T2 chain: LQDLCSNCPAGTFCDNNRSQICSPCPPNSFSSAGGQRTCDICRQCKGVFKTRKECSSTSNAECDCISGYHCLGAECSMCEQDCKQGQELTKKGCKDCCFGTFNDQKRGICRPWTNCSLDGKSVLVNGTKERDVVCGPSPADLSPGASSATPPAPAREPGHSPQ
The experiment is described as above. As to the method: as §1

Experiment [1] deals with human CD137, cell-surface (human, UniProt Q07011 24-255). Nature of the experiment: cell-based or functional assay.
human CD137, cell-surface, sequence (Q07011 24-255): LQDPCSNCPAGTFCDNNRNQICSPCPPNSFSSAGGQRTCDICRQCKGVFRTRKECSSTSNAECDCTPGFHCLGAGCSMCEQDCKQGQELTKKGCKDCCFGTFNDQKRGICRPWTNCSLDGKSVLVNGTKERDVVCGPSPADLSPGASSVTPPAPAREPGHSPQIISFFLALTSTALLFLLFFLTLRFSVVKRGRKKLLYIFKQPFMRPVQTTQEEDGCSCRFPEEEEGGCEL
Another experiment deals with T3, human GITR (human, UniProt Q9Y5U5 26-161, limits assumed).
T3 sequence (looked up): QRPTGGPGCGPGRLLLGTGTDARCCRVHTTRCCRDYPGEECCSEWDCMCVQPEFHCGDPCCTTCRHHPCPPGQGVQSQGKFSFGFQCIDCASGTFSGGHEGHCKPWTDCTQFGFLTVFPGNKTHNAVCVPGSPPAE
Nature of the experiment: SPR, receptor amine-coupled to CM5 (~1000 RU). As for the experimental part: (§2) The specificity of the anti-human CD137 Fcabs for human CD137 compared to other related TNFSFR family members was tested. 8 of the Fcabs were tested in mock mAb² (HeID1.3) format and measured by SPR in a Biacore T200 (GE Healthcare) by testing for binding to other human TNFRSF receptors: CD40, OX40 and GITR. Amine coupling (amine coupling kit, GE Healthcare, BR-1000-50) was used to coat human CD40, GITR and OX40 to approximately 1000 RU in Biacore CM5 chips (GE Healthcare, cat no 29149603). […] The chip was regenerated by injection of 10 mM glycine pH 2.5 for 12 s at 30 μl/min. Antibodies specific to the different TNFRSF members were used as positive controls to verify Biacore chip coating. Data was double reference subtracted and analysed using BIAevaluation 3.2 software.

Another experiment concerns the target human CD40 (human, UniProt P25942 21-193, limits assumed). Nature of the experiment: SPR, receptor amine-coupled to CM5 (~1000 RU). As for the experimental part:
as §2

For the next experiment, the target named is T4, human OX40 (human, UniProt P43489 29-216).
T4 sequence (looked up): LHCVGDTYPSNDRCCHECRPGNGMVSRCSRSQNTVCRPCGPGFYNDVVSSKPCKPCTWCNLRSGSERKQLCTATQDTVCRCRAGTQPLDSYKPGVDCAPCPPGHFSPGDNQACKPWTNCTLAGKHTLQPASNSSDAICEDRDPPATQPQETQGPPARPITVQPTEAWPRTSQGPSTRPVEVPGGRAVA
Nature of the experiment: SPR, receptor amine-coupled to CM5 (~1000 RU). As for the experimental part:
as §2

Substitutions are numbered along the chain they refer to.

A word on the Kd: it is the equilibrium constant for the complex coming apart. Low values mean a tighter complex, high ones a looser complex.

human CD40, sequence (P25942 21-193 limits assumed): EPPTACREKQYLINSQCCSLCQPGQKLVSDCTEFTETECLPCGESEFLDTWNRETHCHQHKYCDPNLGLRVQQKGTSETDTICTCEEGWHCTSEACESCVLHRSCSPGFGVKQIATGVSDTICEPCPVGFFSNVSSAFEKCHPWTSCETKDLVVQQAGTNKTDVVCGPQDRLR
T1 sequence (Q07011 24-186): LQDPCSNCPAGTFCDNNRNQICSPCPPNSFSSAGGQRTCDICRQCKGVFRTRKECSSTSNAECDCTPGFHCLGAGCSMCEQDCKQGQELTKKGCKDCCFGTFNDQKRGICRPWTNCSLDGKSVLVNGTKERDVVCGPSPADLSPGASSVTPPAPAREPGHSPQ

B1: FS22-053 in HeID1.3 mock mAb^2 format (bispecific antibody, human IgG1, kappa)
heavy: QVQLQESGPGLVRPSQTLSLTCTVSGSTFSGYGVNWVRQPPGRGLEWIGMIWGDGNTDYNSALKSRVTMLVDTSKNQFSLRLSSVTAADTAVYYCARERDYRLDYWGQGSLVTVSSASTKGPSVFPLAPSSKSTSGGTAALGCLVKDYFPEPVTVSWNSGALTSGVHTFPAVLQSSGLYSLSSVVTVPSSSLGTQTYICNVNHKPSNTKVDKKVEPKSCDKTHTCPPCPAPELLGGPSVFLFPPKPKDTLMISRTPEVTCVVVDVSHEDPEVKFNWYVDGVEVHNAKTKPREEQYNSTYRVVSVLTVLHQDWLNGKEYKCKVSNKALPAPIEKTISKAKGQPREPQVYTLPPSRDELNPPYLFSNQVSLTCLVKGFYPSDIAVEWESNGQPENNYKTTPPVLDSDGSFFLYSKLTVYYNRWQDGNVFSCSVMHEALHNHYTQKSLSLSPG
light: DIQMTQSPASLSASVGETVTITCRASGNIHNYLAWYQQKQGKSPQLLVYNAKTLADGVPSRFSGSGSGTQYSLKINSLQPEDFGSYYCQHFWSTPRTFGGGTKLEIKRTVAAPSVFIFPPSDEQLKSGTASVVCLLNNFYPREAKVQWKVDNALQSGNSQESVTEQDSKDSTYSLSSTLTLSKADYEKHKVYACEVTHQGLSSPVTKSFNRGEC
notes: mock mAb^2: CD137 site in the CH3, Fab against hen egg lysozyme
For the molecule B1, the Kd in the experiment with hCD137-mFc-Avi amounted to 38 nM; in the experiment with cCD137-mFc-Avi it was 34 nM. Also, the “luciferase signal, NF-κB reporter assay (HEK.FRT.luc.hCD137), fold increase on Protein L crosslinking” value in experiment [1] is no less than 10 fold.

B2: FS22-172 in HeID1.3 mock mAb^2 format (bispecific antibody, human IgG1, kappa)
heavy: QVQLQESGPGLVRPSQTLSLTCTVSGSTFSGYGVNWVRQPPGRGLEWIGMIWGDGNTDYNSALKSRVTMLVDTSKNQFSLRLSSVTAADTAVYYCARERDYRLDYWGQGSLVTVSSASTKGPSVFPLAPSSKSTSGGTAALGCLVKDYFPEPVTVSWNSGALTSGVHTFPAVLQSSGLYSLSSVVTVPSSSLGTQTYICNVNHKPSNTKVDKKVEPKSCDKTHTCPPCPAPELLGGPSVFLFPPKPKDTLMISRTPEVTCVVVDVSHEDPEVKFNWYVDGVEVHNAKTKPREEQYNSTYRVVSVLTVLHQDWLNGKEYKCKVSNKALPAPIEKTISKAKGQPREPQVYTLPPSRDELRKYYPPYNQVSLTCLVKGFYPSDIAVEWESNGQPENNYKTTPPVLDSDGSFFLYSKLTVGADRWLEGNVFSCSVMHEALHNHYTQKSLSLSPG
light: B1 light
notes: mock mAb^2
Turning to B2, the dissociation constant (Kd) with hCD137-mFc-Avi came to 52 nM; with cCD137-mFc-Avi, 203 nM. In experiment [1], the “luciferase signal, NF-κB reporter assay (HEK.FRT.luc.hCD137), fold increase on Protein L crosslinking” value is no less than 10 fold.

B3: FS22-053-009/HeID1.3 (bispecific antibody, human IgG1, kappa)
heavy: B1 heavy with Y417E, Y418H, N419T, Q422L
light: B1 light
notes: mock mAb^2; also called FS22-053-009 (mock mAb^2 format)
As for B3, the binding result with human GITR, with human CD40 and with human OX40 was “no binding (tested: 1 µM)” in each case.

B4: FS22-053-012/HeID1.3 (bispecific antibody, human IgG1, kappa)
heavy: B1 heavy with Y417D, Y418H, N419M, Q422L, D423E
light: B1 light
notes: mock mAb^2; also called FS22-053-012 (mock mAb^2 format)
As for B4, the binding result with human GITR, in the experiment with human CD40 and with human OX40 was “no binding (tested: 1 µM)” throughout.

B5: FS22-053-010/HeID1.3 (bispecific antibody, human IgG1, kappa)
heavy: B1 heavy with Y417D, N419M, Q422L
light: B1 light
notes: mock mAb^2; also called FS22-053-010 (mock mAb^2 format)
For B5, the binding result in the experiment with human GITR, with human CD40 and with human OX40 was “no binding (tested: 1 µM)” each time.
